Measurements published in patent US20260224701A1 (University of Texas, published 2026).

What was measured:
Experiment in all cases: biolayer interferometry (Octet), antibody captured on the probe, extracellular domain in solution
[1] = target: T1, human 2Ig-B7-H3 extracellular domain (human, UniProt Q5ZPR3 29-466)
T1 chain: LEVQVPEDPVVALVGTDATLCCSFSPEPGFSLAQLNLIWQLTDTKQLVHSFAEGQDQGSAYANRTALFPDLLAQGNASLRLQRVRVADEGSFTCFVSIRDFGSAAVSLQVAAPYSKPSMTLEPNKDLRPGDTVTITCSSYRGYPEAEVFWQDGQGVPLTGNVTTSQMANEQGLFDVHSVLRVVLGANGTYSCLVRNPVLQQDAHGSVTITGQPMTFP

[2] = target: T2, Porcine 4Ig-B7-H3 extracellular domain (porcine, UniProt A0A287AJ27 27-466)
T2 construct: extracellular domain; Bought protein; also called Porcine 4Ig-B7H-3 protein
Protocol: (§1) The extracellular domains of the indicated 4Ig-B7-H3 and 2Ig-B7-H3 proteins were purchased from R&D systems. All proteins were validated by the vendor to be both pure and functional. KD values were determined utilizing capture biolayer interferometry (Octet, Molecular Devices) in “affinity” mode, wherein the […] antibody was captured on the tip of the probe and placed into solutions containing different concentrations of target extracellular domain.

[3] = target: T3, Cynomolgus 4Ig-B7-H3 extracellular domain (cynomolgus)
T3 construct: extracellular domain; Bought protein; also called Cynomolgus 4Ig-B7H-3 protein
Protocol: as §1

B1: MIL33B chimeric antibody (full-length IgG) (antibody, V domains shown)
VH: EVQLQQSGPELVKPGASVKMSCKASGYTFTSYVMHWVRQSPGQGLEGIGYINSYSDGTKYNEKFKGKATLTSDKSSSTAYMELSGLTSEDSAVYYCARWGGLGNGAMDYWGQGTSVTVSS
VL: QIVLTQSPAIMSASPGEKVTMTCSVSSSVNYMHWYQQKSGTSPKRWIYDTSKLASGVPARFSASGSGTSYSLTISSMEAEDAATYYCQQWTSNPLTFGAGTKLELKR
notes: also called Chimeric VH + VL; MIL33B-chimera
B1 was tested, and the Kd [1] was 13.2 nM.

B2: MIL33B-H1-hIgG1 (antibody, V domains shown)
VH: QVQLVQSGAEVKKPGASVKVSCKASGYTFTSYVMHWVRQAPGQRLEWMGYINSYSDGTKYNEKFKGRVTITSDTSASTAYMELSSLRSEDTAVYYCARWGGLGNGAMDYWGQGTLVTVSS
VL: EIVLTQSPATLSLSPGERATLSCSVSSSVNYMHWYQQKPGQAPRRLIYDTSKLASGIPARFSGSGSGTDYTLTISSLEPEDFAVYYCQQWTSNPLTFGQGTKLEIK
notes: also called AHF15945; AHF 15945
B2 showed a Kd [1] of 21.6 nM.

B3: MIL33B-H2-hIgG1 (antibody, V domains shown)
VH: QVQLVQSGAEVKKPGASVKVSCKASGYTFTSYVMHWVRQAPGQRLEWMGYINSYSDGTKYNEKFKGRATITRDTSASTAYMELSSLRSEDTAVYYCARWGGLGNGAMDYWGQGTLVTVSS
VL: EIVLTQSPATLSLSPGERATLSCSVSSSVNYMHWYQQKPGQAPRRLIYDTSKLASGIPARFSGSGSGTDYTLTISSLEPEDFAVYYCQQWTSNPLTFGQGTKLEIK
notes: also called AHF15938; AHF 15938
Binder B3 has a Kd [1] of 14 nM.

B4: MIL33B-H3-hIgG1 (antibody, V domains shown)
VH: QVQLVQSGAEVKKPGASVKVSCKASGYTFTSYVMHWVRQAPGQRLEWMGYINSYSDGTKYNEKFKGRVTITRDTSASTAYMELSSLRSEDTAVYYCARWGGLGNGAMDYWGQGTLVTVSS
VL: EIVLTQSPATLSLSPGERATLSCSVSSSVNYMHWYQQKPGQAPRRLIYDTSKLASGIPARFSGSGSGTDYTLTISSLEPEDFAVYYCQQWTSNPLTFGQGTKLEIK
notes: also called hMIL33B-H3; humanized MIL33B-H3
For B4, the Kd [1] was 43.5 nM, the Kd [2] was 0.559 nM and the Kd [3] was 0.28 nM.
